{"source": "patent US20230280343A1", "target": "p300 (UniProt Q09472)", "sequence (Q09472 323-423 limits assumed)": "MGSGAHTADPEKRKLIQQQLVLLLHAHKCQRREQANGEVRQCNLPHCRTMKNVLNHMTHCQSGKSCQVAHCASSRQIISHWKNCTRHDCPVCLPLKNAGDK", "test": "not stated; comparator to the H-MAP-1 ELISA"}
{"substance": "native HIF1α protein (from UniProt Q16665 786-826)", "values": [{"measurement": "Kd", "value": 0.38, "unit": "nM"}]}
